Numbering of substitutions follows the chain as printed. One block for each binder: values may come before it.
Target: trypsin
Experiment: monoclonal phage ELISA

B1: F07 (KnotBody with EET 5-3 framing) (scFv, V domains shown)
VH: EVQLVESGGGLVRPGGSLRLSCAASGFTFSSYAMSWVRQAPGKGLEWVSAISGSGGSTYYADSVKGRFTISRDNTKNSLYLQMTSLRADDTAFYYCVKDFGPGYGTGWFDYWGPGTLVTVSS
VL: AVNWYQQLPGKAPKLLIYAAGGCGPNGFCGSGSDGGVCPRILMRCKQDSDCLAGCGGQSGVPDRFSGSKSGTSASLAISRLQSEDEADYYCAAWDDSLNAYVFGTGTKVTVLG
ELISA signal: 72800

B3: E09 (KnotBody with EET 5-3 framing) (scFv, V domains shown)
VH: B1 VH
VL: B1 VL with G57T, V61I, D63E, R80G, Q82R, N99R, K108Q, V109L
ELISA signal: 70300

Continued, values first:

ELISA signal: 68000
B2: F03 (KnotBody with EET 5-3 framing) (scFv, V domains shown)
VH: B1 VH
VL: AVNWYQQLPGRAPKLLIYAAGGCGPNGFCGSGGDGGVCPRILMRCKQDSDCLAGCGAHSGIPERFSGSKSGTSASLAISGLRSEDEADYYCAAWDDSLNGWVFGGGTKVTVLG

ELISA signal: 27600
B4: G11 (KnotBody with EET 5-3 framing) (scFv, V domains shown)
VH: B1 VH
VL: AVNWYQQLPGKAPKLLIYAAGGCGPNGFCGSGSDGGVCPRILMRCKQDSDCLAGCGQSSGVSDRFSGSKSGTSATLDITGLQTGDEADYYCGTWDNSLSVGVFGGGTKVTVLG
